Assay results as given in patent publication US8628762B2, “T-helper cell type 17 lineage-specific adjuvants, compositions and methods” (Icahn School of Medicine at Mount Sinai, priority 2008, dated 2014).

Legend:
Naïve CD4 T-cells = test: qPCR of lineage genes in naïve CD4 T-cells cultured with DCCM; type: cell-based, C57BL/6J mice; conditions: quantitative RT-PCR
Excerpt: (§1) Naïve CD4 T cells were isolated first by sorting with MACS® CD4^+ beads (Miltenyi Biotech, Auburn, Calif.) according to manufacturer's instructions and then by fluorescence activated cell sorting (FACS) using a MoFlo™, Vantage, or Influx™ cell sorter for CD25^−CD44^lowCD62L^high cells using allophycocyanin (APC)-conjugated anti-CD25 monoclonal antibody (mAb) (clone PC61.5), FITC-conjugated CD62L mAb (clone MEL-14), and PE-Cy5-conjugated CD44 mAb (clone IM7) (all from eBioscience™, San Diego, Calif.). Cells were grown in complete IMDM (Gibco, Carlsbad, Calif.) supplemented with 10% FBS, 100 μg/mL penicillin, 100 μg/mL streptomycin, 2 mM L-glutamine, 10 mM HEPES, and 1 nM sodium pyruvate, and activated on 48-well tissue-culture plates which had been coated with 4 μg anti-CD3 (clone 2C11) for 3 h at 37° C., then washed 3 times with PBS. Cultures were supplemented with 2 μg/mL anti-CD28 (clone 37-51, a kind gift from J. Allison, Sloan-Kettering Cancer Center) and anti-IL-4 ascites (clone 11B11, a kind gift from T. Moran, Mount Sinai School of Medicine, ATCC number HB188) at 1:500. mAbs 2C11 and 37-51 were purified from hybridoma supernatants by BioXCell Company (West Lebanon, N.H.). When cultured with conditioned medium (CM) from BMDC, T cells were grown in 1:1 CM:fresh complete IMDM. […]
T cells cultured for 48 hours under the indicated conditions were lysed and RNA isolated by TRIzol® extraction (Invitrogen) according to manufacturer's instructions. […] Quantitative real-time, reverse transcription polymerase chain reaction (qPCR) was conducted on an ABI Prism® 7900 instrument (Applied Biosystems, Foster City, Calif.) with primer pairs and probes as follows. […]
Quantitative PCR was performed using TaqMan® quantitative PCR Master Mix at a concentration of 1× (Applied Biosystems). […] “Fold inductions” were calculated using the ΔΔCt method relative to T cells activated under neutral conditions (No cytokines or CM). […]

Naïve CD4 T cells = test: Intracellular staining (IL-17, IFN-γ, IL-10, Foxp3) of CD4 T cells cultured with DCCM, flow cytometry; type: cell-based, C57BL/6J mice; conditions: IL-6 added to DCCM-apoptotic B-cells or DCCM-apoptotic neutrophils
Excerpt: as §1, with “PBS.” for “PBS. Cultures were supplemented with 2 μg/mL anti-CD28 (clone 37-51, a kind gift from J. Allison, Sloan-Kettering Cancer Center) and anti-IL-4 ascites (clone 11B11, a kind gift from T. Moran, Mount Sinai School of Medicine, ATCC number HB188) at 1:500. mAbs 2C11 and 37-51 were purified from hybridoma supernatants by BioXCell Company (West Lebanon, N.H.). When cultured with conditioned medium (CM) from BMDC, T cells were grown in 1:1 CM:fresh complete IMDM.”
Because development of Treg cells is reciprocally related to TH17 cells^10 expression of Foxp3, a transcription factor unique to Treg cells^19 was examined. After 3 days of culture with DCCM from the indicated groups, T cells were restimulated with PMA and ionomycin for 4 hours with Brefeldin A before intracellular cytokine staining for IL-17 and IFN-γ was performed, and expression of these cytokines was determined by FACS. […]

B1: IL-6: cytokine interleukin-6 (Peprotech), 50 ng/mL (protein, UniProt P08505 25-211, looked up)
Interleukin-6: FPTSQVRRGDFTEDTTPNRPVYTTSQVGGLITHVLWEIVEMRKELCNGNSDCMNNDDALAENNLKLPEIQRNDGCYQTGYNQEICLLKISSGLLEYHSYLEYMKNNLKDNKKDKARVLQRDTETLIHIFNQEVKDLHKIVLPTPISNALLTDKLESQKEWLRTKTIQFILKSLEEFLKVTLRSTRQT
Q: What does the source list for B1?
A: Foxp3 mRNA induction (Naïve CD4 T-cells): Foxp3 induction was impaired; Foxp3 expression (Naïve CD4 T cells): markedly impaired Foxp3 expression; IL-17 production (Naïve CD4 T cells): restored IL-17 production
